Assay results as given in article PMC3427169, “Interaction of Mycobacterium tuberculosis RshA and SigH Is Mediated by Salt Bridges” (PLoS ONE, 2012).

B1: Mycobacterium tuberculosis anti-sigma factor RshA, 6xHis-tagged (pET29a) (natural protein)
chain: MSENCGPTDAHADHDDSHGGMGCAEVIAEVWTLLDGECTPETRERLRRHLEACPGCLRHYGLEERIKALIGTKCRGDRAPEGLRERLRLEIRRTTIIRGGP
notes: also called WT RshA; 6xHis:RshA; not shown: His6, C-terminal, kept

Experiments:
[1] = target: SigH (Mycobacterium tuberculosis) (UniProt P9WGH8); settings: cited from earlier work
[2] = target: T1, Mycobacterium tuberculosis SigH, 6xHis-tagged (pET29a) (Mycobacterium tuberculosis H37Rv, UniProt P9WGH9 1-216); assay: native gel or EMSA; metal free RshA mixed with SigH at equimolar concentrations (3 µM each in the text, 5 µM each in the legend), 50 mM Tris HCl pH 8.0, 100 mM NaCl, 0.01% Triton X-100, 25°C; native gel pH 8.8 and SDS-PAGE, Coomassie; settings: both partners purified
T1 construct: no tag removal is told; also called WT SigH; 6xHis:SigH; not shown: His6, C-terminal, kept
T1 sequence (P9WGH9 whole entry): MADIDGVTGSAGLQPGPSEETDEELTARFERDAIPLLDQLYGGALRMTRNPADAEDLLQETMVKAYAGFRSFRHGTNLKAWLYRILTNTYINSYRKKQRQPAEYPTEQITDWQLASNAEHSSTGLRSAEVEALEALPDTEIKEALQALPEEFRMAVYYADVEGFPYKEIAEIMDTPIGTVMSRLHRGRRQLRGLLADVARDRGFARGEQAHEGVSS

Sequence of SigH (Mycobacterium tuberculosis) (P9WGH8 whole entry): as the sequence (P9WGH9 whole entry) above

Molecule | Kd [1] [nM] | binding result [2]
RshA (from UniProt P9WJ68) | 15 | –
B1 | – | binds
